# In PMC5964048:
# pKd: −log10 of the molar value.
# Target: Fluorescein-labeled murine N-WASP-VCA (a.a. 399-501) (murine) (UniProt Q91YD9)
# Assay: fluorescence polarisation
substance,measurement,value
ACD-cross-linked actin oligomers (from UniProt P68135 1-377),pKd,8.10
